Experimental data as given in US20260209386A1 (MYTHIC THERAPEUTICS, published 2026).

T1: Human PTK7/CCK4 Protein, His Tag, Acro Biosystems PT7-H52H3 (human, UniProt Q13308 31-704)
T1 construct: bought protein; also called Human PTK7 Protein, His Tag, Acro Biosystems; not shown: His tag
T1 sequence: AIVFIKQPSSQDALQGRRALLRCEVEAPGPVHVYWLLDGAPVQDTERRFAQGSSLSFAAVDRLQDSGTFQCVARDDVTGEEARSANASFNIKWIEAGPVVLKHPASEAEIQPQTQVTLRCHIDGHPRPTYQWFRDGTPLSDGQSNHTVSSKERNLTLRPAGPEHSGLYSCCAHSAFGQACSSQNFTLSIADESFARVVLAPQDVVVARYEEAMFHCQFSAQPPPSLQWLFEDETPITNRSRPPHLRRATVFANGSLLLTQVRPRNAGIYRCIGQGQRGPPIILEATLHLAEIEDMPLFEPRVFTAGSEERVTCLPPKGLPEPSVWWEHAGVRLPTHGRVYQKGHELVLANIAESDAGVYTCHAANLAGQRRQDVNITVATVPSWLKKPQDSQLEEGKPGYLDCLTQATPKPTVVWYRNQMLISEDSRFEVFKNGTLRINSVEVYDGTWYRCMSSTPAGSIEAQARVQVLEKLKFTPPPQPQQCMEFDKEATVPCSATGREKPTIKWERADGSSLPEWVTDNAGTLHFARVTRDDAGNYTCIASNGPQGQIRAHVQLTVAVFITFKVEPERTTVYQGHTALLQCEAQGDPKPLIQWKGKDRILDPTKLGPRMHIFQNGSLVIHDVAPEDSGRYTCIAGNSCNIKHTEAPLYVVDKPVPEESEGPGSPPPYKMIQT


What follows are binders tested against T1, Human PTK7/CCK4 Protein, His Tag, Acro … (assay: BLI, antibody on anti-human Fc sensor, 50 nM PTK7).

binding result	Binder
binds	MYT11103 (antibody, V domains shown, IgG) VH: EVQLVESGGGLVQPGGSLRLSCTASGHSLSTYAMSWVRQAPGKGLEWVGMIYINDNTYYASWAKGRFTISRDTSKNTVYLQMNSLRAEDTAVYFCARDIGISYYIGVSLWGQGTLVTVSS VL: EIVMTQSPSTLSASVGDRVIITCQASQSIGTRLSWYQQKPGKAPKLLIYGASKLATGVPSRFSGSGSGAEFTLTISSLQPDDFATYYCLGEYSYTTTDGIAFGQGTKLTVL
binds	MYT11108 (antibody, V domains shown, IgG) VH: EVQLVESGGGLVQPGGSLRLSCTASGFSLSTHAMSWVRQAPGKGLEWVGMIYINDNTYYASWAKGRFTISRDTSKNTVYLQMNSLRAEDTAVYFCARDIGISYYIGVSLWGQGTLVTVSS VL: EIVMTQSPSTLSASVGDRVIITCQASQSIGTRLSWYQQKPGKAPKLLIYGASKLATGVPSRFSGSGSGAEFTLTISSLQPDDFATYYCLGEYSYTTTDGIAFGQGTKLTVL
binds	MYT11105 (antibody, V domains shown, IgG) VH: EVQLVESGGGLVQPGGSLRLSCTASGFSHSTYAMSWVRQAPGKGLEWVGMIYINDNTYYASWAKGRFTISRDTSKNTVYLQMNSLRAEDTAVYFCARDIGISYYIGVSLWGQGTLVTVSS VL: EIVMTQSPSTLSASVGDRVIITCQASQSIGTRLSWYQQKPGKAPKLLIYGASKLATGVPSRFSGSGSGAEFTLTISSLQPDDFATYYCLGEYSYTTTDGIAFGQGTKLTVL
binds	MYT11107 (antibody, V domains shown, IgG) VH: EVQLVESGGGLVQPGGSLRLSCTASGFSLSHYAMSWVRQAPGKGLEWVGMIYINDNTYYASWAKGRFTISRDTSKNTVYLQMNSLRAEDTAVYFCARDIGISYYIGVSLWGQGTLVTVSS VL: EIVMTQSPSTLSASVGDRVIITCQASQSIGTRLSWYQQKPGKAPKLLIYGASKLATGVPSRFSGSGSGAEFTLTISSLQPDDFATYYCLGEYSYTTTDGIAFGQGTKLTVL
binds	MYT11106 (antibody, V domains shown, IgG) VH: EVQLVESGGGLVQPGGSLRLSCTASGFSLHTYAMSWVRQAPGKGLEWVGMIYINDNTYYASWAKGRFTISRDTSKNTVYLQMNSLRAEDTAVYFCARDIGISYYIGVSLWGQGTLVTVSS VL: EIVMTQSPSTLSASVGDRVIITCQASQSIGTRLSWYQQKPGKAPKLLIYGASKLATGVPSRFSGSGSGAEFTLTISSLQPDDFATYYCLGEYSYTTTDGIAFGQGTKLTVL
binds	MYT10999 (antibody, V domains shown, IgG) VH: EVQLVESGGGLVQPGGSLRLSCTASGFSLSSYAMGWVRQAPGKGLEWVGFINAGGNTYYANWAKGRFTISRDTSKNTVYLQMNSLRAEDTAVYFCARRYSRASGWYDLWGQGTLVTVSS VL: EIVMTQSPSTLSASVGDRVIITCQASQSISHYLAWYQQKPGKAPKLLIYAASTLASGVPSRFSGSGSGAEFTLTISSLQPDDFATYYCQSYSYSSGIDYGDVFGQGTKLTVL
binds	MYT11023 (antibody, V domains shown, IgG) VH: EVQLVESGGGLVQPGGSLRLSCTASGFSLSSYAMGWVRQAPGKGLEWVGFINAGGNTYYANWAKGRFTISRDTSKNTVYLQMNSLRAEDTAVYFCARRYSRASGWYDLWGQGTLVTVSS VL: EIVMTQSPSTLSASVGDRVIITCQASQSISSYLAWYQQKPGKAPKLLIYAASTLASGVPSRFSGSGSGAEFTLTISSLQPDDFATYYCQSYSYSSGIDYGDHFGQGTKLTVL
binds	MYT11000 (antibody, V domains shown, IgG) VH: EVQLVESGGGLVQPGGSLRLSCTASGFSLSSYAMGWVRQAPGKGLEWVGFINAGGNTYYANWAKGRFTISRDTSKNTVYLQMNSLRAEDTAVYFCARRYSRASGWYDLWGQGTLVTVSS VL: EIVMTQSPSTLSASVGDRVIITCQASQSISSHLAWYQQKPGKAPKLLIYAASTLASGVPSRFSGSGSGAEFTLTISSLQPDDFATYYCQSYSYSSGIDYGDVFGQGTKLTVL
binds	MYT11018 (antibody, V domains shown, IgG) VH: EVQLVESGGGLVQPGGSLRLSCTASGFSLSSYAMGWVRQAPGKGLEWVGFINAGGNTYYANWAKGRFTISRDTSKNTVYLQMNSLRAEDTAVYFCARRYSRASGWYDLWGQGTLVTVSS VL: EIVMTQSPSTLSASVGDRVIITCQASQSISSYLAWYQQKPGKAPKLLIYAASTLASGVPSRFSGSGSGAEFTLTISSLQPDDFATYYCQSYSYSSGHDYGDVFGQGTKLTVL
binds	MYT11021 (antibody, V domains shown, IgG) VH: EVQLVESGGGLVQPGGSLRLSCTASGFSLSSYAMGWVRQAPGKGLEWVGFINAGGNTYYANWAKGRFTISRDTSKNTVYLQMNSLRAEDTAVYFCARRYSRASGWYDLWGQGTLVTVSS VL: EIVMTQSPSTLSASVGDRVIITCQASQSISSYLAWYQQKPGKAPKLLIYAASTLASGVPSRFSGSGSGAEFTLTISSLQPDDFATYYCQSYSYSSGIDYHDVFGQGTKLTVL
binds	MYT11010 (antibody, V domains shown, IgG) VH: EVQLVESGGGLVQPGGSLRLSCTASGFSLSSYAMGWVRQAPGKGLEWVGFINAGGNTYYANWAKGRFTISRDTSKNTVYLQMNSLRAEDTAVYFCARRYSRASGWYDLWGQGTLVTVSS VL: EIVMTQSPSTLSASVGDRVIITCQASQSISSYLAWYQQKPGKAPKLLIYAASTLASGVPSRFSGSGSGAEFTLTISSLQPDDFATYYCHSYSYSSGIDYGDVFGQGTKLTVL
binds	MYT11006 (antibody, V domains shown, IgG) VH: EVQLVESGGGLVQPGGSLRLSCTASGFSLSSYAMGWVRQAPGKGLEWVGFINAGGNTYYANWAKGRFTISRDTSKNTVYLQMNSLRAEDTAVYFCARRYSRASGWYDLWGQGTLVTVSS VL: EIVMTQSPSTLSASVGDRVIITCQASQSISSYLAWYQQKPGKAPKLLIYAASHLASGVPSRFSGSGSGAEFTLTISSLQPDDFATYYCQSYSYSSGIDYGDVFGQGTKLTVL
binds	MYT11012 (antibody, V domains shown, IgG) VH: EVQLVESGGGLVQPGGSLRLSCTASGFSLSSYAMGWVRQAPGKGLEWVGFINAGGNTYYANWAKGRFTISRDTSKNTVYLQMNSLRAEDTAVYFCARRYSRASGWYDLWGQGTLVTVSS VL: EIVMTQSPSTLSASVGDRVIITCQASQSISSYLAWYQQKPGKAPKLLIYAASTLASGVPSRFSGSGSGAEFTLTISSLQPDDFATYYCQSHSYSSGIDYGDVFGQGTKLTVL
binds	MYT11003 (antibody, V domains shown, IgG) VH: EVQLVESGGGLVQPGGSLRLSCTASGFSLSSYAMGWVRQAPGKGLEWVGFINAGGNTYYANWAKGRFTISRDTSKNTVYLQMNSLRAEDTAVYFCARRYSRASGWYDLWGQGTLVTVSS VL: EIVMTQSPSTLSASVGDRVIITCQASQSISSYLAWYQQKPGKAPKLLIYHASTLASGVPSRFSGSGSGAEFTLTISSLQPDDFATYYCQSYSYSSGIDYGDVFGQGTKLTVL
binds	MYT11014 (antibody, V domains shown, IgG) VH: EVQLVESGGGLVQPGGSLRLSCTASGFSLSSYAMGWVRQAPGKGLEWVGFINAGGNTYYANWAKGRFTISRDTSKNTVYLQMNSLRAEDTAVYFCARRYSRASGWYDLWGQGTLVTVSS VL: EIVMTQSPSTLSASVGDRVIITCQASQSISSYLAWYQQKPGKAPKLLIYAASTLASGVPSRFSGSGSGAEFTLTISSLQPDDFATYYCQSYSHSSGIDYGDVFGQGTKLTVL
binds	MYT11013 (antibody, V domains shown, IgG) VH: EVQLVESGGGLVQPGGSLRLSCTASGFSLSSYAMGWVRQAPGKGLEWVGFINAGGNTYYANWAKGRFTISRDTSKNTVYLQMNSLRAEDTAVYFCARRYSRASGWYDLWGQGTLVTVSS VL: EIVMTQSPSTLSASVGDRVIITCQASQSISSYLAWYQQKPGKAPKLLIYAASTLASGVPSRFSGSGSGAEFTLTISSLQPDDFATYYCQSYHYSSGIDYGDVFGQGTKLTVL
binds	MYT11001 (antibody, V domains shown, IgG) VH: EVQLVESGGGLVQPGGSLRLSCTASGFSLSSYAMGWVRQAPGKGLEWVGFINAGGNTYYANWAKGRFTISRDTSKNTVYLQMNSLRAEDTAVYFCARRYSRASGWYDLWGQGTLVTVSS VL: EIVMTQSPSTLSASVGDRVIITCQASQSISSYHAWYQQKPGKAPKLLIYAASTLASGVPSRFSGSGSGAEFTLTISSLQPDDFATYYCQSYSYSSGIDYGDVFGQGTKLTVL
binds	MYT11004 (antibody, V domains shown, IgG) VH: EVQLVESGGGLVQPGGSLRLSCTASGFSLSSYAMGWVRQAPGKGLEWVGFINAGGNTYYANWAKGRFTISRDTSKNTVYLQMNSLRAEDTAVYFCARRYSRASGWYDLWGQGTLVTVSS VL: EIVMTQSPSTLSASVGDRVIITCQASQSISSYLAWYQQKPGKAPKLLIYAHSTLASGVPSRFSGSGSGAEFTLTISSLQPDDFATYYCQSYSYSSGIDYGDVFGQGTKLTVL
binds	MYT11093 (antibody, V domains shown, IgG) VH: EVQLVESGGGLVQPGGSLRLSCTASGLSLSSYWMSWVRQAPGKGLEWVGVISAGGNTYYANWAKGRFTISRDTSKNTVYLQMNSLRAEDTAVYFCARGDDGYTNAAYVSNLWGQGTLVTVSS VL: EIVMTQSPSTLSASVGDRVIITCQASQSISSWLSWYQQKPGKAPKLLIYKASTLASGVPSRFSGSGSGAEFTLTISSLQPDDFATYYCQSYHDSTTIAFGQGTKLTVL
